Measurements reported in patent US20070015194A1 (RAMOT AT TEL AVIV UNIVERSITY, published 2007).

Target: T1, CC2D1A protein (coiled-coil and C2 domain containing 1A), wild type, human, GenBank Accession No. NP-060191 (human, UniProt Q6P1N0 1-951)
T1 construct: Endogenous protein in lysates of lymphoblast or lymphoblastoid cells from unaffected individuals; It is the long isoform of 951 amino acids, seen as a band of about 104 kDa; also called FLJ20241; wild type protein
T1 sequence: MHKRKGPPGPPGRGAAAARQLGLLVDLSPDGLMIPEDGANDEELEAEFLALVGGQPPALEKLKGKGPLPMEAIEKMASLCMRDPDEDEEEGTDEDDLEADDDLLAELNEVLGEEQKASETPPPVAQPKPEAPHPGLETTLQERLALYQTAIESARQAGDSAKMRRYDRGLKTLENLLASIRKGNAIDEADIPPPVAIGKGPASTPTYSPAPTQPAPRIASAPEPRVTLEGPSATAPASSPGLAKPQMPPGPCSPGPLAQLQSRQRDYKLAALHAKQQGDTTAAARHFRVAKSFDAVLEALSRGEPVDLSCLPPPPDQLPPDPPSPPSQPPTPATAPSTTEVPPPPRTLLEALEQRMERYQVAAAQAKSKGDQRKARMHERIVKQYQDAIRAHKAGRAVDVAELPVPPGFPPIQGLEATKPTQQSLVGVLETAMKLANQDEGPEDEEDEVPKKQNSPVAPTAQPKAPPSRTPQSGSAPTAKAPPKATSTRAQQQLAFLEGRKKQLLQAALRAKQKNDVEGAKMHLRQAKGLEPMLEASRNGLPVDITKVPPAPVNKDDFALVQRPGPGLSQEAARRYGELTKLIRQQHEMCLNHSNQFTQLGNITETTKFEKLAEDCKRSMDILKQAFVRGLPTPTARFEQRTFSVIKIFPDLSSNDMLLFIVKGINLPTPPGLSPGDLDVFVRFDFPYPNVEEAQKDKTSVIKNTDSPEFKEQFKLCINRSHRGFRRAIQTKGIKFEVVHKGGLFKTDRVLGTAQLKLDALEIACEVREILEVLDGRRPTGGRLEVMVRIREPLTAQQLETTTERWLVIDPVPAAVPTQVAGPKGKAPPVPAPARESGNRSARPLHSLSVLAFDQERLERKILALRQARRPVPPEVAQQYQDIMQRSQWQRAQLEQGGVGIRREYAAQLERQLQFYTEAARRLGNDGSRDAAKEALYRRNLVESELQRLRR
Experiment: co-immunoprecipitation of endogenous proteins from control lymphoblastoid cell extracts with anti-CC2D1A antibody, Western blot with anti-p50 (data not shown)
Method: Western blot—Lymphoblast cell proteins were subjected to Western blot analysis using the CC2D1A antibody. Briefly, cells were washed twice with PBS and lysed at 4° C. with lysis buffer (0.6% NP40 and protease inhibitors). After 15 minutes of incubation, cell lysates were centrifuged for 5 minutes at 14,000 rpm and supernatants were collected. Protein concentrations were determined using the BCA Protein Assay Reagent Kit (PIERCE). Whole-cell proteins (approximately 20 μg) were subjected to 7.5% SDS-PAGE and transferred to nitrocellulose membranes. The membranes were blocked for 30 minutes at room temperature with 5% skim milk in Tris-buffer (10 mM Tris, 150 mM NaCl, and 0.1% Tween-20) and subsequently incubated with anti-CC2D1A rabbit polyclonal antibody (BL695, Bethyl laboratories) diluted 1:20000, rabbit polyclonal anti-emerin (sc-15378, Santa Cruz Biotechnology) diluted 1:5000, mouse monoclonal antibody anti-NF-κB p50 (sc-8414, Santa Cruz Biotechnology) diluted 1:1000 or mouse monoclonal antibody p65 (sc-8008, Santa Cruz Biotechnology) diluted 1:5000. After washing and subsequent incubation for 1 hour with horseradish peroxidase coupled to anti-rabbit IgG or mouse IgG respectively (Jackson ImmunoResearch Laboratories, West Grove, Pa.), immunoreactive proteins were visualized by an ECL (enhanced chemiluminescence super signal) Detection Kit (PIERCE). […]

B1: p50 subunit of NF-κB (other, human, UniProt P19838 1-433, looked up)
chain: MAEDDPYLGRPEQMFHLDPSLTHTIFNPEVFQPQMALPTDGPYLQILEQPKQRGFRFRYVCEGPSHGGLPGASSEKNKKSYPQVKICNYVGPAKVIVQLVTNGKNIHLHAHSLVGKHCEDGICTVTAGPKDMVVGFANLGILHVTKKKVFETLEARMTEACIRGYNPGLLVHPDLAYLQAEGGGDRQLGDREKELIRQAALQQTKEMDLSVVRLMFTAFLPDSTGSFTRRLEPVVSDAIYDSKAPNASNLKIVRMDRTAGCVTGGEEIYLLCDKVQKDDIQIRFYEEEENGGVWEGFGDFSPTDVHRQFAIVFKTPKYKDINITKPASVFVQLRRKSDLETSEPKPFLYYPEIKDKEEVQRKRQKLMPNFSDSFGGGSGAGAGGGGMFGSGGGGGGTGSTGPGYSFPHYGFPTYGGITFHPGTTKSNAGMKHG
notes: Endogenous protein; also called NF-κB p50
B1: no binding.
